This data set deals with the molecule itself. The experiment in a line: dynamic light scattering; FCS1 at 1 mg/mL in 20 mM Tris-HCl pH 7; hydrodynamic radius converted to mass assuming a spherical molecule.

B1: feruloyl-CoA synthetase FCS1 (enzyme, UniProt A0A2P1BT06 1-707, looked up)
chain: MGERRFSNQQIDRLLRPKSVAVIGASDRKGALGATLLNNLVQYEFSGDIYPVNPKRDELLGLKVYHEVAELPEGIDCAVLAIPRPFVIDTVRQLAQRGCGAVVIYSAGFSEAGEEGMKDQLELAAIAAEYGMVIEGPNCLGCTNYVERVPLTFVETNMQTPPKGTRAVGIASQSGALAAVLATALHPRGLYVSSSVSTGNEAASGVEDYVEWLVDDEDTHVIAMYVESLRRPKAFIAAARRAHAAGKPIVMLHPGKSNKAQESAATHTGAMAGDYALMKTKLAREGVIFADTLEELADITEIALRCRALPGANMAVLGESGALRGLAFDIAEDIGLDLIHLDDDNSPALRAILPDFVPVSNPTDITALGLSEPEIYTKVLTALLEDERIGSVVASIIQSDPITSGIKFPHIIKVLDGGTFAKPLVFAGVDEGATVPKEYIDGLRKVGIPWFPSTERAYRAIARLADLSKRDLADNSGDPIVVPGLDAVSGVVPEYKAKELLRPLGIAFPPSQFAANAEAAAAAARAIGYPVVMKAQAAALGHKSDAGGVILNLKTDDEVRDAFARIYGNVEAYDRSIALDGVLIEKMGKMGTEMIVGAKNDPQWGPVVLAGFGGVTAEILKDVKLFTPEMDAAAVQRGLLELKQAPILKGYRGAPALDVAALAELIVQIGRVMAGNPSIREIDLNPVIIHPAGEGVAALDALMLVER
notes: feruloyl-CoA synthetase FCS1 from the metagenome of a lignin-degrading microbial consortium from sugarcane plantation soil; GenBank MG214406; codon-optimised, synthesised gene; predicted molecular mass 74.9 kDa; No tag cleavage is described
The stoichiometry N is the number of molecules, sites or subunits per partner or assembly. In the case of B1, the “stoichiometry N” value came to 2.

Values taken from paper PMC6388921, “An alkaline active feruloyl-CoA synthetase from soil metagenome as a potential key enzyme for lignin valorization strategies” (PLoS ONE, 2019).
